In US20140235701, “NGF APTAMER AND APPLICATION THEREOF” (RIBOMIC INC., published 2014):

T1: NT-4 (neurotrophin-4) (Homo sapiens, UniProt P34130 P34130:81-210)
T1 sequence: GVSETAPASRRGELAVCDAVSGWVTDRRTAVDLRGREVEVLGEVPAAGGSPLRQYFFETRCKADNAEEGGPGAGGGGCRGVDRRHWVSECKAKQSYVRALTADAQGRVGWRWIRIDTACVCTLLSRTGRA

B1: SEQ ID NO: 23 (ssRNA)
RNA: GGGAGAACUUCGACCAGAAGUGGCACAUCCUGCUGCGUAGUUUCCGUCUGCGUGGCUGUUAUGUGCGCAUACAUGGAUCCUC
modifications: 2'-F C/U, dA, 2'-OH G
B2: SEQ ID NO: 26 (ssRNA)
RNA: GGGAGAACUUCGACCAGAAGUGGCACAUCCUGCUGCGUAGUUUCCGUCUUCGCGGCUGUUAUGUGCGCAUACAUGGAUCCUC
modifications: 2'-F C/U, dA, 2'-OH G
B3: SEQ ID NO: 36 (ssRNA)
RNA: GGGAGAACUUCGACCAGAAGGUACGUUAGUACGUUUGCAUAUGUACAACCUUGCAUACGAUACGUAGGUUAUGUGCGCAUACAUGGAUCCUC
modifications: 2'-F C/U, dA, 2'-OH G
B4: SEQ ID NO: 29 (ssRNA)
RNA: GGGAGAACUUCGACCAGAAGUUCACAUCCUGCUGCGAAGUUUCCUUCUUCGUGGCUGUUAUGUGCGCAUACAUGGAUCCUC
modifications: 2'-F C/U, dA, 2'-OH G
B5: SEQ ID NO: 22 (ssRNA)
RNA: GGGAGAACUUCGACCAGAAGUUGGCACAUCCUGCUGCGUAGUUUCCGUCUUCGUGGCUGUUAUGUGCGCAUACAUGGAUCCUC
modifications: 2'-F C/U, dA, 2'-OH G
B6: SEQ ID NO: 25 (ssRNA)
RNA: GGGAGAACUUCGACCAGAAGUUGGCACAUCCUGCUGCGCAGUUUCCGUCUACGUGGCUGUUAUGUGCGCAUACAUGGAUCCUC
modifications: 2'-F C/U, dA, 2'-OH G
B7: SEQ ID NO: 35 (ssRNA)
RNA: GGGAGAACUUCGACCAGAAGUUGGCACAUCCUGUUGCGUAGUUUCCUUCUACGUGGCUGUUAUGUGCGCAUACAUGGAUCCUC
modifications: 2'-F C/U, dA, 2'-OH G
B8: SEQ ID NO: 37 (ssRNA)
RNA: GGGAGAACUUCGACCAGAAGUUGGCACAUCCUGCUACGUAGUUUCCUUCUUCGUGGCUGUUAUGUGCGCAUACAUGGAUCCUC
modifications: 2'-F C/U, dA, 2'-OH G
B9: SEQ ID NO: 28 (ssRNA)
RNA: GGGAGAACUUCGACCAGAAGUUGGCACAUCCUGCUGCGUAGUUUCCAUCUGCGUGGCUGUUAUGUGCGCAUACAUGGAUCCUC
modifications: 2'-F C/U, dA, 2'-OH G
B10: SEQ ID NO: 34 (ssRNA)
RNA: GGGAGAACUUCGACCAGAAGUUGGCACAUCCUGCCGCGUAGUUUCCGUCUGCGUGGCUGUUAUGUGCGCAUACAUGGAUCCUC
modifications: 2'-F C/U, dA, 2'-OH G
B11: SEQ ID NO: 27 (ssRNA)
RNA: GGGAGAACUUCGACCAGAAGUUGGCACAUCCUGCUGCGCAGUUUCCGUCUGCGUGGCUGUUAUGUGCGCAUACAUGGAUCCUC
modifications: 2'-F C/U, dA, 2'-OH G
B12: SEQ ID NO: 24 (ssRNA)
RNA: GGGAGAACUUCGACCAGAAGUUGGCACAUCCUGCUGCGAAGUUUCCGUCUCCGUGGCUGUUAUGUGCGCAUACAUGGAUCCUC
modifications: 2'-F C/U, dA, 2'-OH G
B13: SEQ ID NO: 33 (ssRNA)
RNA: GGGAGAACUUCGACCAGAAGUUGGCACAUCCUGCCGCGUAGUUUCAAUCUUGGUGGCGUGUAUGUGCGCAUACAUGGAUCCUC
modifications: 2'-F C/U, dA, 2'-OH G
B14: SEQ ID NO: 32 (ssRNA)
RNA: GGGAGAACUUCGACCAGAAGUUGGCACAUCCUGCUGCGGAGUUUCCUUCUUCGUGGCUGUUAUGUGCGCAUACAUGGAUCCUC
modifications: 2'-F C/U, dA, 2'-OH G
B15: SEQ ID NO: 30 (ssRNA)
RNA: GGGAGAACUUCGACCAGAAGUUGGCACAUCCUGCUGCGAAGGUUCCGUCUUCGUGGCUGUACUAUGUGCGCAUACAUGGAUCCUC
modifications: 2'-F C/U, dA, 2'-OH G

The binders below were run against T1, NT-4 (neurotrophin-4) (assay: cell_activity; TF-1). Settings: tags: R&D Systems; chain copies: 2.
From the text: Using TF-1 cells, whether NGF aptamer inhibits BDNF, NT-3, NT-4 was examined. Human receptor genes (TrkB, TrkC, p75) for respective neurotrophic factors were introduced into TF-1 cells (ATCC Number: CRL-2003), which is a human erythroleukemic cell line, by using a retrovirus vector to give cells that highly express these receptors stably. TF-1 cells introduced with TrkB and p75 were used for the evaluation of inhibitory activity against BDNF, TF-1 cells introduced with TrkC and p75 were used for the evaluation against NT-3, and TF-1 cells introduced with TrkB alone were used for the evaluation against NT-4. These cells were suspended in an RPMI-1640 medium containing 20% fetal bovine serum, and seeded in a white 96 well flat-bottom plate at 1000 cells (50 μL) per well. Thereto was added a mixed solution 50 μL of human BDNF (final concentration 0.074 nM) or NT-3 (final concentration 0.074 nM) or NT-4 (final concentration 0.071 nM) and the aptamer (final concentration 1 μM-0.01 nM), which had been pre-reacted at room temperature for 30 min in a serum-free RPMI-1640 medium, 3 days later, 100 μL of CellTiter-Glo reagent for CellTiter-Glo Luminescent Cell Viability Assay (manufactured by Promega) was added to each well, chemiluminescence was measured by a microplate reader. With the amount of luminescence per well obtained by the addition of BDNF or NT-3 or NT-4 alone and culture of the cells for 3 days as inhibitory activity 0%, and that of the well obtained by culture for 3 days without addition of BDNF or NT-3 or NT-4 as inhibitory activity 100%, the inhibitory activity of the aptamer was calculated from the amount of luminescence per well obtained by culturing with the addition of BDNF or NT-3 or NT-4 and the aptamer in mixture. When the inhibitory activity was 0 or below, ‘0%’ is indicated. The 50% inhibitory concentration (IC₅₀) was determined from the concentrations at two, above and below points sandwiching the 50% inhibitory activity. An IC₅₀ value indicated as “>X” means that the inhibitory activity was not more than 50% when the indicated concentration X was the maximum measured concentration. N.D. means not measured.
For GGGUCCUGGAUAAGAGUUUCCGUCUCGUAUCCUGUUACCC (ssRNA, as 82(25) except 5' PEG80TS4 instead of idT) [SEQ ID NO: 82(55)], the IC50 was 14.3 nM. For GGGUCCUGGAUAAGAGUUUCCGUCUCGUAUCCUGUUACCC (ssRNA, 2'-OMe G (G8,G34 2'-OH), dA, 2'-F C/U; 5',3' idT) [SEQ ID NO: 82(1)], the IC50 was less than 100 nM.

These binders were tested against NGF (nerve growth factor) (Homo sapiens, UniProt P01138 P01138:122-241) (assay: SPR; more than 40N control). Settings: tags: R&D Systems; chain copies: 2.
NGF (nerve growth factor), sequence (P01138 122-241, one chain of several): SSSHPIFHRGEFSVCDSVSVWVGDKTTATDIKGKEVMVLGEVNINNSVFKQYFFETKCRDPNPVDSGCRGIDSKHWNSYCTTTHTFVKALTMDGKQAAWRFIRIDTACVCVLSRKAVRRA
Experimental: As the measuring apparatus, BIAcore2000 manufactured by BIAcore was used and, as the sensor chip, CM5 that reacts with an amino group was used. […] For the reaction of an amino group on the protein side and a carboxyl group on the chip side, ethyl-3-carbodiimide hydrochloride and N-hydroxysuccinimide were used. After the reaction, blocking by ethanolamine-HCl was performed. The immobilized amount of NGF was set to 3,000-4,000 RU. An aptamer for analyte was prepared to 0.15 μM-0.5 μM. As a running buffer, solution A was used. Here, solution A is a mixed solution of 145 mM sodium chloride, 5.4 mM potassium chloride, 1.8 mM calcium chloride, 0.8 mM magnesium chloride, 20 mM Tris (pH 7.6), 0.05% Tween 20. As a regeneration solution, a mixed solution of 1M NaCl and 50 mM NaOH was used. NGF was immobilized on FC2, and the results of FC1 were subtracted to give a final sensorgram.
The measurement was as shown in Examples 1 and 2 and the surface plasmon resonance method was used.
B1: binds. B2: binds. B3: binds. B4: binds. B5: binds. B6: binds. B7: binds. B8: binds. B9: binds. B10: binds. B11: binds. B12: binds. B13: binds. B14: binds. B15: binds.
